# Source: the DeepSol protein solubility set
# Test: soluble on expression in E. coli; label from the status in PepcDB or PDB records
row,Sequence,soluble on expression in E. coli
1,MAPYKKSKQKQQKIQKERLRQQQKLDLAEGSVNIPDQDRSRSQDFSMNSTNSSALQDPLQQQPRPVETEKQQKARKERLRYQMKQLGTPCEPVTFSEEITKQLDELYESDDLPDMGLKSVWKRRLGIPMKKLNDWLKQKAFEKCHVSAQTGSCESSKSNSPSESTKSMGSAVLSSSTEPRTPEESHCAPEKSPESTENASPLSSSAEPETPEETSTSMVQIPENFKNKRLSQDLVDKLQELFQINEMPGREISEQWAQQLGISLKTLNNWMQKKRSQKLHPEQAKLKSQRWQETRRLRRAGLNQEKVEKALPYLEAAFKRCQFATQQTMAELKLNTSLQKSQIRLWFSRRRKAPDATHVPAIESDSDDLVELRALFNATEEDDDSDIEILRDTRQEQEEYRNRPEVRAMIERMFGVGGGGGSLDSGIPLQ,not soluble
2,MTTAARRPAPTTAGAGWDAGVGALVNPSRRRGGTLRLVSSADVDSLDPARTYYVWVWLLQRLLNRTLMAYPTDPGPAGLVPAPDLAEGPGEVSDGGRTWTYRLRRGLRYDDGTPITSDDVRHAVQRVFAQDVLPGGPTYLIPLLDDPERPYPGPYRTDEPLRSVLTPDEHTIVFRLTRPFSDFDHLMAQPCAAPVPRRSDTGADYGRDPRSSGPYRVARHEPDTLLHLERNPHWDRATDPIRPALPDRVELTIGLDVDVLDARLIAGEFDINLEGRGLQHAAQRRATADEVLRSHTDNPRTSFLHFVAMQPHIPPFDNVHVRRAVQYAADKILLQDARGGPVNGGDLTTALFPPTLPAHQDLDLYPTGPDLRGDLDAARAELAAAGLPDGFRAVIGTQRGKFRLVADAVVESLARVGIELTVKELDVATYFSLGAGHPETVREHGLGLLVTDWGADFPTEYGFLAPLVDGRQIKRNGGNWNLPELDDPEVNALIDETLHTTDPAARAELWRAVERRVMEHAVLLPLVHDKTLHFRNPWVTNVYVHPAFGLYDIQAMGLAEED,soluble
3,MKVYKDVFTNDEVCSDSYNQEDPFGIADFREIAFEVKSNKRIKGNDDYGIADNSEEAVDGMGADVEQVIDIVDSFQLTSTSLSKKEYSVYIKNYMQKILKYLEEKKPDRVDVFKTKAQPLIKHILTNFDDFEFYMGESLDMDAGLTYSYYKGEEVTPRFVYISDGLYEEKF,soluble
4,MLHITAAKARAGGQIGGVFCLAQCSLNVLVSGMQTQPLPPLISARPVGRGARSNDAGRFEPLERVAEHDGWEREEELPPLRTQVSLETARSLISYNRSPDLPFDRSINPYRGCEHGCSYCFARPSHAYLGLSPGLDFETRLVARPNAAEVLRAELSARRYKVAPIAIGTNTDPYQPLEKTHAITRACLQVLAEFNHPVAIVTRGALIERDLDILAPMAARGLVRVGISLTTLDAALARRMEPRAPSPKRRLAMIRALNGAGVPVRVMTSPLIPGLTDHELESLLAAGAEAGADTASWIMLRLPREVSPLWQEWLAEHAPARAAKVMARLREMHGGRDYDPRWGHRMRGEGEYAQMIAKRFRAACKRIGLAQEAPALRCDLFRVPPQPGDQLSLF,not soluble
5,MMQTSRPTLQLLTASACYRDDPTALFHQLCGARPATLLLESAEVDNKQNLKSLLVIDSALRITALGQTVTLEALTRNGASLLPLLDASLPTEVDIQVRPNGRELTFPLINEVQDEDSRLQSLSVFDALRQLLTLVNTPLAEREALFLGGLFAYDLVAGFENLPPLRQDQRCPDFCFYLAETLLVLDHQHRSTRLQASLFTPDSSEYQRLATRLEQLSHQLQQAPHPIPATSVPEMALQCNQSDEEYCNVVSELQVAIREGEIFQVVPSRRFTLPCPSPLAAYQTLKDHNPSPYMFFMQDNDFSLFGASPESALKYDASNRQIEIYPIAGTRPRGRRPNGELDRDLDSRIELEMRTDHKEMAEHLMLVDLARNDLARICEPGSRYVADLTKVDRYSFVMHLVSRVIGTLRQDLDVLHAYQACMNMGTLSGAPKVRAMQLIASNEGSRRGSYGGAVGYFTAHGDLDTCIVIRSAYVEDGIATVQAGAGVVLDSVPQAEADETRNKARAVLRAIATAHHAKEIF,not soluble
6,MSLTTVLGIETSCDETGVGIARLDPDGTVTLLADEVASSVDEHVRFGGVVPEIASRAHLEALGPAMRRALAAAGLKQPDIVAATIGPGLAGALLVGVAAAKAYSAAWGVPFYAVNHLGGHLAADVYEHGPLPECVALLVSGGHTHLLHVRSLGEPIIELGSTVDDAAGEAYDKVARLLGLGYPGGKALDDLARTGDRDAIVFPRGMSGPADDRYAFSFSGLKTAVARYVESHAADPGFRTADIAAGFQEAVADVLTMKAVRAATALGVSTLLIAGGVAANSRLRELATQRCGEAGRTLRIPSPRLCTDNGAMIAAFAAQLVAAGAPPSPLDVPSDPGLPVMQGQVEGHHHHHH,soluble
7,MAHHHHHHMKSFSVTPRVWRRISEKNAEEGYGNDLRYLRLMIESGGCHGYAYKFLFEENSELVADEDVVVAESDVVQLPQPKSQELRTVAEGEGEGDVGESKAKGPPPRLVVDKHSVAKLLSAVVDFHSELKGSAFVVIGNELVDKSCACAMSFSMKKQQQKV,not soluble
8,MSLSLPLFYAPDIEQSDRLPDDEAGHILRVLRMQAGDRLRLTDGRGSFFDAVIETADRKSCYVSVCGQESWQKPWRDRITIAIAPTKQSERMEWMLEKLVEIGVDEVVFIESEHSERRRIKAERLERIAISAMKQSLKASFPVIRVNIPIQTVIADTPKAAVRLIAYVDEAVRAEITQGRGYPSDFYHVGQDVLILIGPEGDFSPSEVESALLAGFAPVSLGESRLRTETAGLVACQWIHTLQACYRIGEGHHHHHH,soluble
9,MGSDKIHHHHHHMKKLDLDVLAMVVAVAESGSFAQGAQAVHRSPSAVSMQIKALEDALGKPLFIRDTRNVTATDDGRMLAEYGRRMLAMRDEAWASVVRPEIRGRVTIGVPDDYISSLLPQVLGKFAAMHPRVEVRVIGQPSSALVPMLKDNTVDLACLTRIKGVTGELIRMEPLVWVGSPKRNVWEERPLPVAFFTHGGSMARDHAVKALNRRKIPYRMSYESPSHLGLLSMVEAGLAVAPLARCCIPDHLVQLSESHGLPSLGELEVVLARSAKSARPPCDYLAEQILDEWRT,not soluble
10,MHIDLRQLRHFIALHEHRSFVAAALAVNLSQSAFSRSIQALEHSAGCRLVDRAAKDLRPTKQGLIVLEHARRLVSGAHNLANEIALFNGLEAGELRFGAGPAPATWLVPRAVGRFNVRYPKARVSFQVEHWQALNRRLQAEEFEFFVADTRHFEADPQYRTSRLRPRRWHFCCREGHPLAARESVSAEELLSFPLATNISPPNIRKVLVDLSGRPDFRPAIECENGHSLLGVVLASDAIGISSGLGDLAPPGQGGLRPLRVRELPDDLDELHTRYGIVSRAGYSLSPLAEAMIDELKRVDDAT,not soluble
11,MRVDLERQQHQFLRRTYGPQHRLTTQQALTVMRVAAREQTRYSQRTTQCVAAHLLEQRAAVQQELQRARQLQSGNVDDALDSLTELKDTVDDVRATLVDSVSATCDLDLEVDDAVLEHHHHHH,not soluble
12,MGRIKQGLDYFPLSTDFMHDRIVRRVMKREGDSAFTVLIYIMSYLYSGEGYYVRADTDFCDELSDQLFSTDNDTVRRVIRLFLEYGLFDSALYERYSILTSEDVQRQYLFITKRRSRHHICPDYCLLPEEKTTDEQPDTVAATGENVAVSPNIATASRDTATKTALIKRKEKEKKENIFPNPPFAKGGDEEEGSEGEKVAEGAGGGMREECDQRSATRKRNLTQEDIDRMQVPPDGCPRNFSGLLENLRLFRVPPAEQYAIVLKSNYGEIGGDIWKGFSVIRGSGGKIKLPGHYLLSVLNK,not soluble
13,MKFEGIYTPAITPLSADGSIDTQAFAEVLEFLVESKVHGIVIGGSTGEYYAHTAEERLALAAHASEVIAGRLPLVVGTGAIRTEDSLAYAEAARAIGADAILVGSPPYALPTSREIAEHVLAVDRAAGLPIMLYNYPARMGVEMDEAFFAAVAGCRNIVAIKESSGSTAQLHRLACRHPRIALSCGWDDQALEFFAWGARSWVCAGSNFIPGEHLALYQACVVENDFAKGRRIMAAMMPLMDFLESGHFVQSIKHGCELAGLRAGGVRAPLKALDEAGKAALAEIVARLKGEVAR,not soluble
14,SKTNHIVIIGYSRIGKCVALSLINRGDPVVIVEESKRLTDKAIADGFEVICGNIIKQDVMNAANMSNAYKVVITMCNTIEVGECIVNIRDMNKDIQIITHTLSDVDTAYLIDLGADIVVTDEEEIANGVIEHITGQRFIKNIAQS,soluble
